According to patent US20230272029A1, “CO-AGONISTS AT GLP-1 AND GIP RECEPTORS SUITABLE FOR ORAL DELIVERY” (Novo Nordisk A/S, priority 2020, published 2023):
Starred links: 1 amine or outer side, 2 acyl side, 3 side chain; linkers in the order of their positions; H or OH if unused. Non-standard residues stand in square brackets, D forms with d. Groups on a side chain read outwards from the residue. No end group written: not given here. *: point of attachment. C18 diacid = O=C(O)CCCCCCCCCCCCCCCCC(=O)*; γGlu = O=C(O)[C@H](CCC(=O)[*:2])N[*:1]; εLys = N[C@@H](CCCCN[*:1])C(=O)[*:2]; AEEA = NCCOCCOCC(=O)O; Aib = CC(C)(N)C(=O)O

T1: human GIP receptor (human, UniProt P48546 22-466)
T1 sequence (looked up): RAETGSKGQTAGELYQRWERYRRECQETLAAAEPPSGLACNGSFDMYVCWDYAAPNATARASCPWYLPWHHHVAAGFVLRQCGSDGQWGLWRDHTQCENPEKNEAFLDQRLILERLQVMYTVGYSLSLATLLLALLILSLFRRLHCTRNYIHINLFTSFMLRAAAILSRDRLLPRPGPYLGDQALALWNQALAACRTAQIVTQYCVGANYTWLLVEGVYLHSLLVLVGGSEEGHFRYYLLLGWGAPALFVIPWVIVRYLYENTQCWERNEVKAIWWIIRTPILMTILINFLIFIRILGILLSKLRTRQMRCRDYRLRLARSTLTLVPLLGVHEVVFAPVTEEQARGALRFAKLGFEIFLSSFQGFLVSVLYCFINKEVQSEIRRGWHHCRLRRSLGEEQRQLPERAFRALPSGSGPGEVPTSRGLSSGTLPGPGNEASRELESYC

B1: Compound No. 31 (peptide)
peptide: Y[Aib]EGTFTSDYSILLEK([εLys-εLys-γGlu-C18 diacid])QAAREFIEWLLAGGPSSGAPPPS-OH
modifications: N-terminus assumed
SMILES: CC[C@H](C)[C@H](NC(=O)[C@H](Cc1ccccc1)NC(=O)[C@H](CCC(=O)O)NC(=O)[C@H](CCCNC(=N)N)NC(=O)[C@H](C)NC(=O)[C@H](C)NC(=O)[C@H](CCC(N)=O)NC(=O)[C@H](CCCCNC(=O)[C@@H](N)CCCCNC(=O)[C@@H](N)CCCCNC(=O)CC[C@H](NC(=O)CCCCCCCCCCCCCCCCC(=O)O)C(=O)O)NC(=O)[C@H](CCC(=O)O)NC(=O)[C@H](CC(C)C)NC(=O)[C@H](CC(C)C)NC(=O)[C@@H](NC(=O)[C@H](CO)NC(=O)[C@H](Cc1ccc(O)cc1)NC(=O)[C@H](CC(=O)O)NC(=O)[C@H](CO)NC(=O)[C@@H](NC(=O)[C@H](Cc1ccccc1)NC(=O)[C@@H](NC(=O)CNC(=O)[C@H](CCC(=O)O)NC(=O)C(C)(C)NC(=O)[C@@H](N)Cc1ccc(O)cc1)[C@@H](C)O)[C@@H](C)O)[C@@H](C)CC)C(=O)N[C@@H](CCC(=O)O)C(=O)N[C@@H](Cc1c[nH]c2ccccc12)C(=O)N[C@@H](CC(C)C)C(=O)N[C@@H](CC(C)C)C(=O)N[C@@H](C)C(=O)NCC(=O)NCC(=O)N1CCC[C@H]1C(=O)N[C@@H](CO)C(=O)N[C@@H](CO)C(=O)NCC(=O)N[C@@H](C)C(=O)N1CCC[C@H]1C(=O)N1CCC[C@H]1C(=O)N1CCC[C@H]1C(=O)N[C@@H](CO)C(=O)O
B2: Compound No. 43 (peptide)
peptide: Y[Aib]EGTFTSDYSILLEEQAAREFIEWLLAGGPSK([εLys-εLys-γGlu-C18 diacid])GAPPPS-OH
modifications: N-terminus assumed
SMILES: CC[C@H](C)[C@H](NC(=O)[C@H](Cc1ccccc1)NC(=O)[C@H](CCC(=O)O)NC(=O)[C@H](CCCNC(=N)N)NC(=O)[C@H](C)NC(=O)[C@H](C)NC(=O)[C@H](CCC(N)=O)NC(=O)[C@H](CCC(=O)O)NC(=O)[C@H](CCC(=O)O)NC(=O)[C@H](CC(C)C)NC(=O)[C@H](CC(C)C)NC(=O)[C@@H](NC(=O)[C@H](CO)NC(=O)[C@H](Cc1ccc(O)cc1)NC(=O)[C@H](CC(=O)O)NC(=O)[C@H](CO)NC(=O)[C@@H](NC(=O)[C@H](Cc1ccccc1)NC(=O)[C@@H](NC(=O)CNC(=O)[C@H](CCC(=O)O)NC(=O)C(C)(C)NC(=O)[C@@H](N)Cc1ccc(O)cc1)[C@@H](C)O)[C@@H](C)O)[C@@H](C)CC)C(=O)N[C@@H](CCC(=O)O)C(=O)N[C@@H](Cc1c[nH]c2ccccc12)C(=O)N[C@@H](CC(C)C)C(=O)N[C@@H](CC(C)C)C(=O)N[C@@H](C)C(=O)NCC(=O)NCC(=O)N1CCC[C@H]1C(=O)N[C@@H](CO)C(=O)N[C@@H](CCCCNC(=O)[C@@H](N)CCCCNC(=O)[C@@H](N)CCCCNC(=O)CC[C@H](NC(=O)CCCCCCCCCCCCCCCCC(=O)O)C(=O)O)C(=O)NCC(=O)N[C@@H](C)C(=O)N1CCC[C@H]1C(=O)N1CCC[C@H]1C(=O)N1CCC[C@H]1C(=O)N[C@@H](CO)C(=O)O
B3: Compound No. 32 (peptide)
peptide: Y[Aib]EGTFTSDYSILLEK([AEEA-AEEA-γGlu-C18 diacid])QAAREFIEWLLAGGPSSGAPPPS-OH
modifications: N-terminus assumed
SMILES: CC[C@H](C)[C@H](NC(=O)[C@H](Cc1ccccc1)NC(=O)[C@H](CCC(=O)O)NC(=O)[C@H](CCCNC(=N)N)NC(=O)[C@H](C)NC(=O)[C@H](C)NC(=O)[C@H](CCC(N)=O)NC(=O)[C@H](CCCCNC(=O)COCCOCCNC(=O)COCCOCCNC(=O)CC[C@H](NC(=O)CCCCCCCCCCCCCCCCC(=O)O)C(=O)O)NC(=O)[C@H](CCC(=O)O)NC(=O)[C@H](CC(C)C)NC(=O)[C@H](CC(C)C)NC(=O)[C@@H](NC(=O)[C@H](CO)NC(=O)[C@H](Cc1ccc(O)cc1)NC(=O)[C@H](CC(=O)O)NC(=O)[C@H](CO)NC(=O)[C@@H](NC(=O)[C@H](Cc1ccccc1)NC(=O)[C@@H](NC(=O)CNC(=O)[C@H](CCC(=O)O)NC(=O)C(C)(C)NC(=O)[C@@H](N)Cc1ccc(O)cc1)[C@@H](C)O)[C@@H](C)O)[C@@H](C)CC)C(=O)N[C@@H](CCC(=O)O)C(=O)N[C@@H](Cc1c[nH]c2ccccc12)C(=O)N[C@@H](CC(C)C)C(=O)N[C@@H](CC(C)C)C(=O)N[C@@H](C)C(=O)NCC(=O)NCC(=O)N1CCC[C@H]1C(=O)N[C@@H](CO)C(=O)N[C@@H](CO)C(=O)NCC(=O)N[C@@H](C)C(=O)N1CCC[C@H]1C(=O)N1CCC[C@H]1C(=O)N1CCC[C@H]1C(=O)N[C@@H](CO)C(=O)O
B4: Compound No. 44 (peptide)
peptide: Y[Aib]EGTFTSDYSILLEEQAAREFINWLLAGGPSK([εLys-εLys-γGlu-C18 diacid])GAPPPS-OH
modifications: N-terminus assumed
SMILES: CC[C@H](C)[C@H](NC(=O)[C@H](Cc1ccccc1)NC(=O)[C@H](CCC(=O)O)NC(=O)[C@H](CCCNC(=N)N)NC(=O)[C@H](C)NC(=O)[C@H](C)NC(=O)[C@H](CCC(N)=O)NC(=O)[C@H](CCC(=O)O)NC(=O)[C@H](CCC(=O)O)NC(=O)[C@H](CC(C)C)NC(=O)[C@H](CC(C)C)NC(=O)[C@@H](NC(=O)[C@H](CO)NC(=O)[C@H](Cc1ccc(O)cc1)NC(=O)[C@H](CC(=O)O)NC(=O)[C@H](CO)NC(=O)[C@@H](NC(=O)[C@H](Cc1ccccc1)NC(=O)[C@@H](NC(=O)CNC(=O)[C@H](CCC(=O)O)NC(=O)C(C)(C)NC(=O)[C@@H](N)Cc1ccc(O)cc1)[C@@H](C)O)[C@@H](C)O)[C@@H](C)CC)C(=O)N[C@@H](CC(N)=O)C(=O)N[C@@H](Cc1c[nH]c2ccccc12)C(=O)N[C@@H](CC(C)C)C(=O)N[C@@H](CC(C)C)C(=O)N[C@@H](C)C(=O)NCC(=O)NCC(=O)N1CCC[C@H]1C(=O)N[C@@H](CO)C(=O)N[C@@H](CCCCNC(=O)[C@@H](N)CCCCNC(=O)[C@@H](N)CCCCNC(=O)CC[C@H](NC(=O)CCCCCCCCCCCCCCCCC(=O)O)C(=O)O)C(=O)NCC(=O)N[C@@H](C)C(=O)N1CCC[C@H]1C(=O)N1CCC[C@H]1C(=O)N1CCC[C@H]1C(=O)N[C@@H](CO)C(=O)O

Tests used:
[1] = biological target: human GLP-1 receptor (human, UniProt P43220 24-463); assay: cell-based or functional assay
[2] = biological target: T1, human GIP receptor; assay: cell-based or functional assay

| Binder | hGLP-1R, CRE Luc 0% HSA EC50 (pM) [1] [pM] | hGLP-1R, CRE Luc 1% HSA EC50 (pM) [1] [pM] | hGIPR, CRE Luc 0% HSA EC50 (pM) [2] [pM] | hGIPR, CRE Luc 1% HSA EC50 (pM) [2] [pM] |
| --- | --- | --- | --- | --- |
| B1 | 4.2 | 202 | 4.7 | 188 |
| B2 | 4 | 360 | 5.6 | 444 |
| B3 | 5 | 982 | 7.1 | 679 |
| B4 | 4.2 | 241 | 5.7 | 365 |
